Source: article PMC6007000 (Nature genetics, 2017)
Non-standard residues stand in square brackets, D forms with d. Residues, ends and D or L forms follow the SMILES beside them. No end group written: not given here. Lys(Me3) = C[N+](C)(C)CCCC[C@H](N)C(=O)O

How the values were obtained:
[1] = biological target: BAF45c (residues 254–368), PHD1-2 region of DPF3 (Homo sapiens, UniProt Q92784); assay: Isothermal titration calorimetry of H3 tail peptides with DPF3; type: binding
[2] = biological target: PHD1-2 region of human BAF45c (DPF3), residues 254–368 (human) (UniProt Q92784); assay: ITC
Chain of PHD1-2 region of human BAF45c (DPF3), residues 254–368 (human) (Q92784 254-368): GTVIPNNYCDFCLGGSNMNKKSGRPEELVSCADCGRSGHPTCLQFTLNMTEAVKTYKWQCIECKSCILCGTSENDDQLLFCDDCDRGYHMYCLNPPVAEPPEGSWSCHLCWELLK

Chain of BAF45c (residues 254–368), PHD1-2 region of DPF3 (Q92784 254-368): as above

Compound | Kd [1] [µM] | Kd [2] [µM]
CC(=O)NCCCC[C@H](NC(=O)CNC(=O)CNC(=O)[C@@H](NC(=O)[C@H](CO)NC(=O)[C@H](CCCCN)NC(=O)[C@H](CCCNC(=N)N)NC(=O)[C@H](C)NC(=O)[C@H](CCCNC(=N)N)NC(=O)[C@@H](NC(=O)[C@H](CCC(N)=O)NC(=O)[C@H](CCCC[N+](C)(C)C)NC(=O)[C@@H](NC(=O)[C@H](CCCNC(=N)N)NC(=O)[C@H](C)N)[C@@H](C)O)[C@@H](C)O)[C@@H](C)O)C(=O)N[C@@H](C)C(=O)N1CCC[C@H]1C(=O)N[C@@H](CCCNC(=N)N)C(=O)N[C@@H](CCCCN)C(=O)O [H3K4me3/K14ac] (H-ART[Lys(Me3)]QTRARKSTGGK(Ac)APRK-OH) | 115 | 
H3K4me1K14Ac peptide (H3 tail, H3K4me1 and H3K14ac) |  | 20
H3K14Ac peptide (H3 tail, H3K4me0 and H3K14ac) |  | 7.8
H3K4me3K14Ac peptide (H3 tail, H3K4me3 and H3K14ac) |  | 115
ARTKQTRARKSTGGK(Ac)APRK [H3K4me0/K14ac] | 7.8 | 
